Test [1] has as its target SARS-CoV-2 Prototype(PT)假病毒 S蛋白 (SARS-CoV-2 (Prototype), UniProt P0DTC2 14-1273). The test can be described thus: cell-based or functional assay.
The target in the next test is GD/1/2019 假病毒 S蛋白 (sarbecovirus GD/1/2019). Nature of the test: cell-based or functional assay.
Another test concerns the target RaTG13 假病毒 S蛋白 (sarbecovirus RaTG13). The test can be described thus: cell-based or functional assay.
For another test, the target named is SARS-CoV 假病毒 S蛋白 (SARS-CoV, UniProt P59594 14-1255). The test can be described thus: cell-based or functional assay.
Another test concerns the target WIV1 假病毒 S蛋白 (sarbecovirus WIV1). Nature of the test: cell-based or functional assay.
For test [2], the target named is T1, SARS-CoV-2 Prototype株(PT)RBD蛋白 (SARS-CoV-2 (Prototype), UniProt P0DTC2 319-541).
T1 construct: domain: RBD
The test can be described thus: SPR, Biacore 8K; 74 captured on protein A chip, RBD as analyte. (Surface plasmon resonance follows binding to a sensor surface in real time, without labels.)

The target of another test is SARS-CoV RBD蛋白 (SARS-CoV, UniProt P59594 306-527). The test is described as above.

Bounds are passed on as bounds.

The term Kd denotes the constant that tells how readily two partners part at equilibrium. Broadly, the koff is the rate constant with which the complex falls apart. One may read the kon as a measure of how fast the partners come together. A low value points to slow association.

B1: 沙贝病毒广谱人源中和抗体74 (antibody, V domains shown)
VH: QVQLVQSGAQLKKPGESLKISCKGSGYNFSRYWIAWVRHMPGKGLEVMGIIYPDDSDTRYSPSVRGQVTISADKSTSIVYLQWSSLKASDTGIYYCARFGAGMTGMPRYFDTTRWFDPWGQGTQVTVSS
VL: QSVLTQPPSVSGAPGQRVTISCLGGSSNIGAGYDVHWYQHLPGAAPKLLISGNSNRPSGVPARFSGSKSGTSASLAITGLQAEDEADYYCQSYDNDLSQVFGGGTKLTVLG
Turning to B1, the “IC50, 假病毒中和” value in test [1] was 0.95 µg/mL; in the test with GD/1/2019 假病毒 S蛋白 it was 2.8 ng/mL; with RaTG13 假病毒 S蛋白, above 100 µg/mL; in the test with SARS-CoV 假病毒 S蛋白 it was 0.041 µg/mL; with WIV1 假病毒 S蛋白 it was 0.14 µg/mL. For the same molecule, the Kd is below 0.0156 nM in test [2] and below 6.06 pM with SARS-CoV RBD蛋白. Further, the koff amounted to 9.52e-08 s⁻¹ in test [2] and 6.47e-06 s⁻¹ with SARS-CoV RBD蛋白. The kon in test [2] turned out to be 640000 M⁻¹ s⁻¹; in the test with SARS-CoV RBD蛋白 it was 1.65e+06 M⁻¹ s⁻¹.

The values are drawn from CN115850461A (INST MICROBIOLOGY CAS, dated 2023).
